The results in this text go back to US20190367903, “OLIGONUCLEOTIDE PROBES AND USES THEREOF” (CARIS SCIENCE, INC., published 2019).

The data set has as its target T1, EpCAM (UniProt P16422 P16422:24-265).
T1 sequence: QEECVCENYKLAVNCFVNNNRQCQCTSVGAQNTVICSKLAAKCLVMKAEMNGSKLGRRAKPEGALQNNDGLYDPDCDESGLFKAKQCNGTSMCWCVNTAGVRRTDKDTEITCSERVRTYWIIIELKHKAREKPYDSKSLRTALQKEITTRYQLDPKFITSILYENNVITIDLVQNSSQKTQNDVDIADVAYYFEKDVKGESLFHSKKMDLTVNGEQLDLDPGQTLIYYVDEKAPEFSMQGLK
As to the kind of experiment: stated identified by library screening to recognize EpCAM, no data shown.

B1: CAR003 (ssRNA)
RNA: AUCCAGAGUGACGCAGCAGUCUUUUCUGAUGGACACGUGGUGGUCUAGUAUCACUAAGCCACCGUGUCCA
Take B1: the binding result is on record as “binds”.
